# Starred links: 1 amine or outer side, 2 acyl side, 3 side chain; linkers in the order of their positions; H or OH if unused. Positions of bridges follow the written chain, without caps; N, C: chain ends. Non-standard residues stand in square brackets, D forms with d. *: point of attachment. C20 diacid = O=C(O)CCCCCCCCCCCCCCCCCCC(=O)*; 19‑carboxyheptadecanoyl = not defined here; C18 diacid = O=C(O)CCCCCCCCCCCCCCCCC(=O)*; γGlu = O=C(O)[C@H](CCC(=O)[*:2])N[*:1]; AEEA = NCCOCCOCC(=O)O
# T1: human calcitonin (a) receptor (human, UniProt P30988 25-474)
# T1 sequence (looked up): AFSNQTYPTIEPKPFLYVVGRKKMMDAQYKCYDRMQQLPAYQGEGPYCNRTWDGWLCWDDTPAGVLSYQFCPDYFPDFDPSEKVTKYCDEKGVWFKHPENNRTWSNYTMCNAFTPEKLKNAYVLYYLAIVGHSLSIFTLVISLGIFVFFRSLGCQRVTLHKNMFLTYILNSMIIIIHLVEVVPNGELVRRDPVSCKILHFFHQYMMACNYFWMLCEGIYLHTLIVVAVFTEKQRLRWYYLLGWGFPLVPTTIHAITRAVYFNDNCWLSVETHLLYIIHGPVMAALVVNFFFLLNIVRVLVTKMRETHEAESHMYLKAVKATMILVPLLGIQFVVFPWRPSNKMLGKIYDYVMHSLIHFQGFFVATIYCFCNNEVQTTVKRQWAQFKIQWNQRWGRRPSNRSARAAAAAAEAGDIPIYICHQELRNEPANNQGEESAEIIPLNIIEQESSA
# T2: human amylin 3(a) receptor (human calcitonin receptor + RAMP-3) (human, UniProt P30988 25-474; O60896 24-148)
# T2 sequence (looked up) 1: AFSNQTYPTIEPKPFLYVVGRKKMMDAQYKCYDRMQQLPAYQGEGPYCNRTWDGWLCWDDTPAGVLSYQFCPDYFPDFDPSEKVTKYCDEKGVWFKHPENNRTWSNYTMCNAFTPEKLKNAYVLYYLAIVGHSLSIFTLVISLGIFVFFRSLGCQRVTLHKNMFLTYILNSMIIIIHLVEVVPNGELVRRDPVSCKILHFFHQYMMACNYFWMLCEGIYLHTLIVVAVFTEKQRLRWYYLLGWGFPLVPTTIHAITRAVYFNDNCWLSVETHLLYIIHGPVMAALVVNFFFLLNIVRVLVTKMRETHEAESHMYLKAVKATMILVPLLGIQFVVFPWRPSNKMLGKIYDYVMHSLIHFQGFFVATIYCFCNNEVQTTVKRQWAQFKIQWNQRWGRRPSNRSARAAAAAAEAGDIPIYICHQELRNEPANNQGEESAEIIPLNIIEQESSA
# T2 sequence (looked up) 2: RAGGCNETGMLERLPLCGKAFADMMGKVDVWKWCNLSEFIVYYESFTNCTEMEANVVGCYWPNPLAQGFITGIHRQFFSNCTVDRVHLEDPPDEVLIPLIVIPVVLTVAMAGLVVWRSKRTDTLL
# T3: rat amylin 3(a) receptor (rat calcitonin(a) receptor + rat RAMP3) (rat, UniProt P32214 25-516; Q9JJ73 23-147)
# T3 sequence (looked up) 1: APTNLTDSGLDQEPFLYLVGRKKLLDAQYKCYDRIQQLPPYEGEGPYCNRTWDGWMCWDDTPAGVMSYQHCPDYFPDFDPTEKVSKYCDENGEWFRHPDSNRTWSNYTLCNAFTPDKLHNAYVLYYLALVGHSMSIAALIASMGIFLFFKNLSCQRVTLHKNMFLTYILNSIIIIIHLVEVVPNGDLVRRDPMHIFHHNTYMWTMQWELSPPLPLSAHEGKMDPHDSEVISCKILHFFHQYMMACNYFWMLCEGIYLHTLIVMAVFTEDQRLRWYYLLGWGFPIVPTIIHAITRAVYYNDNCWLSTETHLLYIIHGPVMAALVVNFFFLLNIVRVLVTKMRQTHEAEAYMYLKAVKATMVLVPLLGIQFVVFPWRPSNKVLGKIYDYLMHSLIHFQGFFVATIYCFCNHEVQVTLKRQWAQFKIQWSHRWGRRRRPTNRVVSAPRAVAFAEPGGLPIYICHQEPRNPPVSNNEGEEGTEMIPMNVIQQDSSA
# T3 sequence (looked up) 2: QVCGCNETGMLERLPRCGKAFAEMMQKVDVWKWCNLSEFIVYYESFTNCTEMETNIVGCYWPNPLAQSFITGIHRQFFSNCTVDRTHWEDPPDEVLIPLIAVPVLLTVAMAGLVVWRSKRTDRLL
# T4: rat calcitonin (a) receptor (rat, UniProt P32214 25-516)
# T4 sequence (looked up): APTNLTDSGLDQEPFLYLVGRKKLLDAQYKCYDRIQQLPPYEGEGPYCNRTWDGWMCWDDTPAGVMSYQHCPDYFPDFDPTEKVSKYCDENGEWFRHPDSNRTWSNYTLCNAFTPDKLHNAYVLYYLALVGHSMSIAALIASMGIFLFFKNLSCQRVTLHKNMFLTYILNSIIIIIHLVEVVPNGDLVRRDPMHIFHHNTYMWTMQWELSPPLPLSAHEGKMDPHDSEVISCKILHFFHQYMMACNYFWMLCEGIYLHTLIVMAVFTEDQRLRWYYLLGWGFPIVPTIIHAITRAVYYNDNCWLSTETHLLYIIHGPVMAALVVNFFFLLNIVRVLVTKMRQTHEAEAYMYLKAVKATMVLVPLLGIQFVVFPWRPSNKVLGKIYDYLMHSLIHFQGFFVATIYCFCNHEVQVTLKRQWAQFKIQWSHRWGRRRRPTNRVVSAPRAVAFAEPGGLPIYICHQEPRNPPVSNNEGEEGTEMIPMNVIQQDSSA
# Experiments:
# Test in all cases: cell-based or functional assay
# [1] = target: T1, human calcitonin (a) receptor
# [2] = target: T2, human amylin 3(a) receptor (human …)
# [3] = target: T3, rat amylin 3(a) receptor (rat …)
# [4] = target: T4, rat calcitonin (a) receptor
CTa receptor human EC50 [1] [nM],Amylin receptor human EC50 [2] [nM],Amylin receptor rat EC50 [3] [nM],CTa receptor rat EC50 [4] [nM],Binder
0.0537,0.062,0.16,0.076,"{C20 diacid-γGlu}-KCNTATCATQRLAEFLHHSSNNFGPILPPTNVGSNTP-NH2 (disulfide 2-7; not fully specified; printed as N-alpha-[(S)-4-Carboxy-4-(19-carboxynonadecanoylamino)butyryl]-[Glu14,His17,Pro37]-pramlintide) [N-alpha-[(S)-4-Carboxy-4-(19-carboxynonadecanoylamino)butyryl]-[Glu14,His17,Pro37]-pramlintide]"
0.387,0.111,0.511,2.84,"{C20 diacid-γGlu}-KCNTATCATQRLAEFLRHSSNNFGPILPPTNVGSHTY-NH2 (disulfide 2-7; SMILES CC[C@H](C)[C@H](NC(=O)[C@@H]1CCCN1C(=O)CNC(=O)[C@H](Cc1ccccc1)NC(=O)[C@H](CC(N)=O)NC(=O)[C@H](CC(N)=O)NC(=O)[C@H](CO)NC(=O)[C@H](CO)NC(=O)[C@H](Cc1c[nH]cn1)NC(=O)[C@H](CCCNC(=N)N)NC(=O)[C@H](CC(C)C)NC(=O)[C@H](Cc1ccccc1)NC(=O)[C@H](CCC(=O)O)NC(=O)[C@H](C)NC(=O)[C@H](CC(C)C)NC(=O)[C@H](CCCNC(=N)N)NC(=O)[C@H](CCC(N)=O)NC(=O)[C@@H](NC(=O)[C@H](C)NC(=O)[C@@H]1CSSC[C@H](NC(=O)[C@H](CCCCN)NC(=O)CC[C@H](NC(=O)CCCCCCCCCCCCCCCCCCC(=O)O)C(=O)O)C(=O)N[C@@H](CC(N)=O)C(=O)N[C@@H]([C@@H](C)O)C(=O)N[C@@H](C)C(=O)N[C@@H]([C@@H](C)O)C(=O)N1)[C@@H](C)O)C(=O)N[C@@H](CC(C)C)C(=O)N1CCC[C@H]1C(=O)N1CCC[C@H]1C(=O)N[C@H](C(=O)N[C@@H](CC(N)=O)C(=O)N[C@H](C(=O)NCC(=O)N[C@@H](CO)C(=O)N[C@@H](Cc1c[nH]cn1)C(=O)N[C@H](C(=O)N[C@@H](Cc1ccc(O)cc1)C(N)=O)[C@@H](C)O)C(C)C)[C@@H](C)O) [N-alpha-[(S)-4-Carboxy-4-(19-carboxynonadecanoylamino)butyryl]-[Glu14,Arg17,His35]-pramlintide]"
0.163,0.152,0.262,0.673,"{C20 diacid-γGlu}-KCNTATCATQRLAEFLHHSSNNFGPILPPTNVGSHTY-NH2 (disulfide 2-7; SMILES CC[C@H](C)[C@H](NC(=O)[C@@H]1CCCN1C(=O)CNC(=O)[C@H](Cc1ccccc1)NC(=O)[C@H](CC(N)=O)NC(=O)[C@H](CC(N)=O)NC(=O)[C@H](CO)NC(=O)[C@H](CO)NC(=O)[C@H](Cc1c[nH]cn1)NC(=O)[C@H](Cc1c[nH]cn1)NC(=O)[C@H](CC(C)C)NC(=O)[C@H](Cc1ccccc1)NC(=O)[C@H](CCC(=O)O)NC(=O)[C@H](C)NC(=O)[C@H](CC(C)C)NC(=O)[C@H](CCCNC(=N)N)NC(=O)[C@H](CCC(N)=O)NC(=O)[C@@H](NC(=O)[C@H](C)NC(=O)[C@@H]1CSSC[C@H](NC(=O)[C@H](CCCCN)NC(=O)CC[C@H](NC(=O)CCCCCCCCCCCCCCCCCCC(=O)O)C(=O)O)C(=O)N[C@@H](CC(N)=O)C(=O)N[C@@H]([C@@H](C)O)C(=O)N[C@@H](C)C(=O)N[C@@H]([C@@H](C)O)C(=O)N1)[C@@H](C)O)C(=O)N[C@@H](CC(C)C)C(=O)N1CCC[C@H]1C(=O)N1CCC[C@H]1C(=O)N[C@H](C(=O)N[C@@H](CC(N)=O)C(=O)N[C@H](C(=O)NCC(=O)N[C@@H](CO)C(=O)N[C@@H](Cc1c[nH]cn1)C(=O)N[C@H](C(=O)N[C@@H](Cc1ccc(O)cc1)C(N)=O)[C@@H](C)O)C(C)C)[C@@H](C)O) [N-alpha-[(S)-4-Carboxy-4-(19-carboxynonadecanoylamino)butyryl]-[Glu14,His17,His35]-pramlintide]"
1.11,0.149,0.233,4.48,"{19‑carboxyheptadecanoyl-γGlu-AEEA-AEEA}-[dR][dR]KCNTATCATQRLAEFLHRSSANFGPILPPTNVGSSTY-NH2 (disulfide 4-9; reading uncertain; also: printed as N-alpha-[2-(2-{2-[2-(2-{2-[(S)-4-Carboxy-4-(19-carboxyheptadecanoylamino)butyrylamino]ethoxy}ethoxy)acetylamino]ethoxy}ethoxy)acetyl]-D-Arg-D-Arg-[Glu14,His17,Arg18,Ala21,Ser35]-pramlintide)"
0.352,0.299,0.643,4.97,"{C20 diacid-γGlu}-EKCNTATCATQRLAEFLHHSSNNFGPILPPTNVGSHTY-NH2 (disulfide 3-8; not fully specified; printed as N-alpha-[(S)-4-Carboxy-4-(19-carboxynonadecanoylamino)butyryl]-Glu-[Glu14,His17,His35]-pramlintide) [N-alpha-[(S)-4-Carboxy-4-(19-carboxynonadecanoylamino)butyryl]-Glu-[Glu14,His17,His35]-pramlintide]"
0.274,0.0739,0.135,2.43,"{C18 diacid-γGlu}-EKCNTATCATQRLAEFLHHSSNNFGPILPPTNVGSNTY-NH2 (disulfide 3-8; SMILES CC[C@H](C)[C@H](NC(=O)[C@@H]1CCCN1C(=O)CNC(=O)[C@H](Cc1ccccc1)NC(=O)[C@H](CC(N)=O)NC(=O)[C@H](CC(N)=O)NC(=O)[C@H](CO)NC(=O)[C@H](CO)NC(=O)[C@H](Cc1c[nH]cn1)NC(=O)[C@H](Cc1c[nH]cn1)NC(=O)[C@H](CC(C)C)NC(=O)[C@H](Cc1ccccc1)NC(=O)[C@H](CCC(=O)O)NC(=O)[C@H](C)NC(=O)[C@H](CC(C)C)NC(=O)[C@H](CCCNC(=N)N)NC(=O)[C@H](CCC(N)=O)NC(=O)[C@@H](NC(=O)[C@H](C)NC(=O)[C@@H]1CSSC[C@H](NC(=O)[C@H](CCCCN)NC(=O)[C@H](CCC(=O)O)NC(=O)CC[C@H](NC(=O)CCCCCCCCCCCCCCCCC(=O)O)C(=O)O)C(=O)N[C@@H](CC(N)=O)C(=O)N[C@@H]([C@@H](C)O)C(=O)N[C@@H](C)C(=O)N[C@@H]([C@@H](C)O)C(=O)N1)[C@@H](C)O)C(=O)N[C@@H](CC(C)C)C(=O)N1CCC[C@H]1C(=O)N1CCC[C@H]1C(=O)N[C@H](C(=O)N[C@@H](CC(N)=O)C(=O)N[C@H](C(=O)NCC(=O)N[C@@H](CO)C(=O)N[C@@H](CC(N)=O)C(=O)N[C@H](C(=O)N[C@@H](Cc1ccc(O)cc1)C(N)=O)[C@@H](C)O)C(C)C)[C@@H](C)O) [N-alpha-[(S)-4-Carboxy-4-(17-carboxyheptadecanoylamino)butyryl]-Glu-[Glu14,His17]-pramlintide]"
0.112,0.0425,0.015,0.375,"{C18 diacid-γGlu}-HCNTATCATQRLAEFLHHSSNNFGPILPPTNVGSNTY-NH2 (disulfide 2-7; not fully specified; printed as N-alpha-[(S)-4-Carboxy-4-(17-carboxyheptadecanoylamino)butyryl]-[His1,Glu14,His17]-pramlintide) [N-alpha-[(S)-4-Carboxy-4-(17-carboxyheptadecanoylamino)butyryl]-[His1,Glu14,His17]-pramlintide]"
0.0792,0.0469,0.122,0.433,"{C18 diacid-γGlu}-KCNTATCATQRLAEFLHHSSNNFGPILPPTNVGSNTY-NH2 (disulfide 2-7; not fully specified; printed as N-alpha-[(S)-4-Carboxy-4-(17-carboxyheptadecanoylamino)butyryl]-[Glu14,His17]-pramlintide) [N-alpha-[(S)-4-Carboxy-4-(17-carboxyheptadecanoylamino)butyryl]-[Glu14,His17]-pramlintide]"

# Source: patent publication US20130005646A1 (Novo Nordisk, published 2013)
